The results in this text go back to patent US20220259330A1 (SUNSHINE GUOJIAN PHARMACEUTICAL SHANGHAI, published 2022).

Several values for one entry are separate records, joined by “and”; a condition that tells them apart may be missing. Identical values can stand only once.

Experiment [1] addresses TGF-β1 (Sino Biological, Cat. No. 10804-HNAC) (UniProt P01137 279-390). Briefly: ELISA, plate coated with TGF-β1.
In the next experiment the target is T1, PD1-His (human, UniProt Q15116 25-170).
T1 construct: extracellular domain; In-house protein; also called extracellular domain protein of human PD-1 with a 6*His tag
T1 sequence (Q15116 other isoform, or with tags, fused parts or gaps): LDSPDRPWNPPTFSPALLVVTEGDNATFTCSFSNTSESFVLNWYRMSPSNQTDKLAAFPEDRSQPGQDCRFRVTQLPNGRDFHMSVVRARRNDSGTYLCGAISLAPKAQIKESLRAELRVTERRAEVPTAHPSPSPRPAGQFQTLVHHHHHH
The experiment in a line: ELISA, plate coated with PD1-His.

Another experiment deals with T2, CD137-ECD-Fc (human, UniProt Q07011 24-186).
T2 construct: extracellular domain; Bought; also called recombinant protein of the extracellular segment of human CD137 with Fc tags (Sino Biological 10041-H02H); not shown: Fc tag
T2 sequence (Q07011 24-186): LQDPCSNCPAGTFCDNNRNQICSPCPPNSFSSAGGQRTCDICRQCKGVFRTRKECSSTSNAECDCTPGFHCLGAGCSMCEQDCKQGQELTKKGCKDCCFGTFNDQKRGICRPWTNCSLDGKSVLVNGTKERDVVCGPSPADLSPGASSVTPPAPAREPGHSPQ
Briefly: ELISA, plate coated with CD137-ECD-Fc.

For another experiment, the target named is T3, HER2-ECD-His (human, UniProt P04626 23-652).
T3 construct: extracellular domain; Bought; also called recombinant protein of the extracellular segment of human Her-2 with a polyhistidine tag (ACROBiosystems HE2-H5225); not shown: polyhistidine tag
Briefly: ELISA, plate coated with HER2-ECD-His.

TGF-β1 (Sino Biological, Cat. No. 10804-HNAC), sequence (P01137 279-390 limits assumed): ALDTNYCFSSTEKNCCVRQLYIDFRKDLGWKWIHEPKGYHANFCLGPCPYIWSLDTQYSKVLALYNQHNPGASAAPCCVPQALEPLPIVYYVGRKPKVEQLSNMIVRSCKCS

B1: 14-Fab-1D11-IgG4 (bispecific antibody)
heavy: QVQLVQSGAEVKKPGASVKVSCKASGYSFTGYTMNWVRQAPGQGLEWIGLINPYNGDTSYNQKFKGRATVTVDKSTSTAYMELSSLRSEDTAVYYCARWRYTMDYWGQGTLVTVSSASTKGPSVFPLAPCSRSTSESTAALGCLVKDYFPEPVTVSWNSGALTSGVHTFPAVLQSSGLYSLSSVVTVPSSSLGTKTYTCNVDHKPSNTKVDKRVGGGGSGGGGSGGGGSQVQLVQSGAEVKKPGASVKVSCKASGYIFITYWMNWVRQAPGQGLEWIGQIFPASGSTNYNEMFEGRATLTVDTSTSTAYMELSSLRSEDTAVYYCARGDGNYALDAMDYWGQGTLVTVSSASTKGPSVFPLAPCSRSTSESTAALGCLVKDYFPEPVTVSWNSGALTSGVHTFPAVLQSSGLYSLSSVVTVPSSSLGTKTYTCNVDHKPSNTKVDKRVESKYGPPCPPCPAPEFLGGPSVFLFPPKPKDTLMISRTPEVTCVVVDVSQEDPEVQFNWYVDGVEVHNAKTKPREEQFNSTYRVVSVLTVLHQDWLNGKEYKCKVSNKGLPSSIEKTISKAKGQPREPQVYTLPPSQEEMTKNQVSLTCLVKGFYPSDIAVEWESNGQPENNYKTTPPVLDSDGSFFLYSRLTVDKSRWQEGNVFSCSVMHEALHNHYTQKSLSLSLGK
light: DIVLTQSPASLAVSPGQRATITCRASESVDNYGNSFMNWYQQKPGQPPKPLIYFASNLESGVPARFSGSGSRTDFTLTINPVEADDTANYYCQQNNEAPPTFGQGTKVEIKRTVAAPSVFIFPPSDEQLKSGTASVVCLLNNFYPREAKVQWKVDNALQSGNSQESVTEQDSKDSTYSLSSTLTLSKADYEKHKVYACEVTHQGLSSPVTKSFNRGEC
With B1, the EC50 in experiment [1] came to 0.699 nM; in the experiment with PD1-His it was 0.437 nM.

B2: 1D11-Fab-14-IgG4 (bispecific antibody)
heavy: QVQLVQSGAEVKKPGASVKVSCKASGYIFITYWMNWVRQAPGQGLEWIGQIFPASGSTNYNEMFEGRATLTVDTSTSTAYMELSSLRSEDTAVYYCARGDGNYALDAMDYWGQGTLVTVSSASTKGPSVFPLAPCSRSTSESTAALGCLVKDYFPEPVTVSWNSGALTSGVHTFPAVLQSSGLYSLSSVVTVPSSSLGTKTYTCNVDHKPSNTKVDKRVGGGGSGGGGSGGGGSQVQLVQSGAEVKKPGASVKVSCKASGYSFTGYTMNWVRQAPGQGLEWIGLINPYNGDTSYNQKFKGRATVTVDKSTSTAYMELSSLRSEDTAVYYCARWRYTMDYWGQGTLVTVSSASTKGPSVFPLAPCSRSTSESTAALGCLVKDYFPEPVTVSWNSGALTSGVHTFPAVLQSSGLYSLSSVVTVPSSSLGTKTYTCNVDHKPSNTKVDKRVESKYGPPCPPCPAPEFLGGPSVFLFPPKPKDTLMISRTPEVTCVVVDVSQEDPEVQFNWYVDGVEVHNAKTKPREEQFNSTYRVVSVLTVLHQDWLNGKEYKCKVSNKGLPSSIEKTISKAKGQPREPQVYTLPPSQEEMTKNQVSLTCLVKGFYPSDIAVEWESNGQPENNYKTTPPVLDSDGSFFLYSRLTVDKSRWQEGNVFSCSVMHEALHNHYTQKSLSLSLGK
light: DIVLTQSPASLAVSPGQRATITCRASESVDNYGNSFMNWYQQKPGQPPKPLIYFASNLESGVPARFSGSGSRTDFTLTINPVEADDTANYYCQQNNEAPPTFGQGTKVEIKRTVAAPSVFIFPPSDEQLKSGTASVVCLLNNFYPREAKVQWKVDNALQSGNSQESVTEQDSKDSTYSLSSTLTLSKADYEKHKVYACEVTHQGLSSPVTKSFNRGEC
Regarding B2, the EC50 in experiment [1] was found to be 0.363 nM; with PD1-His, 2 nM.

B3: 127-Fab-14-IgG4 (bispecific antibody)
heavy: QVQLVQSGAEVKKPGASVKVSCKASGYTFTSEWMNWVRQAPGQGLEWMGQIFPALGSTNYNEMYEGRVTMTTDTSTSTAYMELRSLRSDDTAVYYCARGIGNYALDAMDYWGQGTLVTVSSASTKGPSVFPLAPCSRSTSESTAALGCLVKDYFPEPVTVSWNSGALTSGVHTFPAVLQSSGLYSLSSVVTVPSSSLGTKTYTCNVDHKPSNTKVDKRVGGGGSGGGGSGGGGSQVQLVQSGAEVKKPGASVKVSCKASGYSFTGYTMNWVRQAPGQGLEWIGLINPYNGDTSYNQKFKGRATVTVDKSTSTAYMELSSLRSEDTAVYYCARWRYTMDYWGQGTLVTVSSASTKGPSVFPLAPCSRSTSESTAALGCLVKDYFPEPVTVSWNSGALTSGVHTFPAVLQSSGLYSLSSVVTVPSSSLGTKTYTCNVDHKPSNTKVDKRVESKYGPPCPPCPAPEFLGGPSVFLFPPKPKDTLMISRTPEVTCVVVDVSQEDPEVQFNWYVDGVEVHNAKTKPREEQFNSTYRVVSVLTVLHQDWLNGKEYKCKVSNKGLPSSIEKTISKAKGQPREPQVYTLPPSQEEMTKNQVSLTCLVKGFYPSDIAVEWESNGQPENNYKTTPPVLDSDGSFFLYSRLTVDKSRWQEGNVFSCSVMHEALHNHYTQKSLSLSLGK
light: DIVLTQSPASLAVSPGQRATITCRASESVDNYGNSFMNWYQQKPGQPPKPLIYFASNLESGVPARFSGSGSRTDFTLTINPVEADDTANYYCQQNNEAPPTFGQGTKVEIKRTVAAPSVFIFPPSDEQLKSGTASVVCLLNNFYPREAKVQWKVDNALQSGNSQESVTEQDSKDSTYSLSSTLTLSKADYEKHKVYACEVTHQGLSSPVTKSFNRGEC
For B3, the EC50 in experiment [1] was 0.108 nM; with PD1-His, 3.96 nM.

B4: 94-Fab-19H6-IgG1-LALA (bispecific antibody)
heavy: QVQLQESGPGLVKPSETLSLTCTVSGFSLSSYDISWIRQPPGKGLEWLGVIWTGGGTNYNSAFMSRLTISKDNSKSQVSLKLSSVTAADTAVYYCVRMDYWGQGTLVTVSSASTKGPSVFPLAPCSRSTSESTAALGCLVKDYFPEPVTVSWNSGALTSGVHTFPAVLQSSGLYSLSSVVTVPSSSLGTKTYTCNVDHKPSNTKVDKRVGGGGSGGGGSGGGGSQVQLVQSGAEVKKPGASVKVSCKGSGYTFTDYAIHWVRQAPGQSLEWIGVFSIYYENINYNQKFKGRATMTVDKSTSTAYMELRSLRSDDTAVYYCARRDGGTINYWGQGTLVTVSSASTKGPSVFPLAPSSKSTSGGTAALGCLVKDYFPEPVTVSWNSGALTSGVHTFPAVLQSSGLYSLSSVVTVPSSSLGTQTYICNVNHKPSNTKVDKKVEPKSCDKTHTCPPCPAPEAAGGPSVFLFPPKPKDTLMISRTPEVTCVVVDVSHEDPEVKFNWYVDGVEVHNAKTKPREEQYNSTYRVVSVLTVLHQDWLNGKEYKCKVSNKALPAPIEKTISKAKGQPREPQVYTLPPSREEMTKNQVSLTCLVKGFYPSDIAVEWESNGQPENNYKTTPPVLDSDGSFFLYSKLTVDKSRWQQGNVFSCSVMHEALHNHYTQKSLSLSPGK
light: DVVMTQSPLSLPVTLGQPASISCRSSQSLVHSNGNTYLHWYQQRPGQSPRLLIYKVSNRFSGVPDRFSGSGSGTDFTLKISRVEAEDVGVYFCSQSTHIPWTFGQGTKVEIKRTVAAPSVFIFPPSDEQLKSGTASVVCLLNNFYPREAKVQWKVDNALQSGNSQESVTEQDSKDSTYSLSSTLTLSKADYEKHKVYACEVTHQGLSSPVTKSFNRGEC
Consider B4, for which the half-maximal effective concentration (EC50) was determined as 0.241 nM with CD137-ECD-Fc and 0.158 nM with HER2-ECD-His.

B5: 19H6-Fab-94-IgG1-LALA (bispecific antibody)
heavy: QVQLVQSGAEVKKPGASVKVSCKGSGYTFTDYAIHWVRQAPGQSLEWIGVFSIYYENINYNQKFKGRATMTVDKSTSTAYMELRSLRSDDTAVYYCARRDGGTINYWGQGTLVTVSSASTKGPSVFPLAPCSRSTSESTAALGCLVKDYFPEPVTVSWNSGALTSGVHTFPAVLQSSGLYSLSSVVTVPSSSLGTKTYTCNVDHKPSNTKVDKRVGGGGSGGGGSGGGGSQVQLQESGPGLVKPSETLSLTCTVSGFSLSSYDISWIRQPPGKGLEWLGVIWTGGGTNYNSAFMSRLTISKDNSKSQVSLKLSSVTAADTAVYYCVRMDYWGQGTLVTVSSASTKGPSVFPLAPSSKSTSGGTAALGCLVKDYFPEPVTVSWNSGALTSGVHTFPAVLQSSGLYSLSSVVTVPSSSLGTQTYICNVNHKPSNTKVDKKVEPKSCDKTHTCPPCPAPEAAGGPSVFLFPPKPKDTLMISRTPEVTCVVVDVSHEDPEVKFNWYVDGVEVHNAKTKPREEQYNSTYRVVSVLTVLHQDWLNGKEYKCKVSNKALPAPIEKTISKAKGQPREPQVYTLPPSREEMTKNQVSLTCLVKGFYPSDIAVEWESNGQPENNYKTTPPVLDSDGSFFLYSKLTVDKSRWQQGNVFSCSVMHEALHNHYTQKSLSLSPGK
light: DVVMTQSPLSLPVTLGQPASISCRSSQSLVHSNGNTYLHWYQQRPGQSPRLLIYKVSNRFSGVPDRFSGSGSGTDFTLKISRVEAEDVGVYFCSQSTHIPWTFGQGTKVEIKRTVAAPSVFIFPPSDEQLKSGTASVVCLLNNFYPREAKVQWKVDNALQSGNSQESVTEQDSKDSTYSLSSTLTLSKADYEKHKVYACEVTHQGLSSPVTKSFNRGEC
With B5, the EC50 came out at 27.6 nM in the experiment with CD137-ECD-Fc and 0.12 nM in the experiment with HER2-ECD-His.

B6: 19H6-Hu-HC+94-Hu-LC (antibody, human IgG1, kappa, V domains shown)
VH: QVQLVQSGAEVKKPGASVKVSCKGSGYTFTDYAIHWVRQAPGQSLEWIGVFSIYYENINYNQKFKGRATMTVDKSTSTAYMELRSLRSDDTAVYYCARRDGGTINYWGQGTLVTVSS
VL: DVVMTQSPLSLPVTLGQPASISCRSSQSLLHSNGNTYLHWYQQRPGQSPRLLFYKVSNRFSGVPDRFSGSGSGTDFTLKISRVEAEDVGVYFCSQSTHVPWTFGQGTKVEIKR
notes: Hybrid antibody
In the case of B6, the binding result with CD137-ECD-Fc is “no binding”. Further, the EC50 with HER2-ECD-His was 0.139 nM.

B7: 94-Hu (antibody, human IgG1, kappa, V domains shown)
VH: QVQLQESGPGLVKPSETLSLTCTVSGFSLSSYDISWIRQPPGKGLEWLGVIWTGGGTNYNSAFMSRLTISKDNSKSQVSLKLSSVTAADTAVYYCVRMDYWGQGTLVTVSS
VL: DVVMTQSPLSLPVTLGQPASISCRSSQSLLHSNGNTYLHWYQQRPGQSPRLLFYKVSNRFSGVPDRFSGSGSGTDFTLKISRVEAEDVGVYFCSQSTHVPWTFGQGTKVEIKR
notes: Humanized anti-human CD137, IgG1, kappa; also called 94-Hu-HC+94-Hu-LC
In the case of B7, the EC50 with CD137-ECD-Fc came out at 0.391 nM. Moreover, the binding result with HER2-ECD-His is on record as “no binding”.

B8: 94-Hu-HC+19H6-Hu-LC (antibody, human IgG1, kappa, V domains shown)
VH: QVQLQESGPGLVKPSETLSLTCTVSGFSLSSYDISWIRQPPGKGLEWLGVIWTGGGTNYNSAFMSRLTISKDNSKSQVSLKLSSVTAADTAVYYCVRMDYWGQGTLVTVSS
VL: DVVMTQSPLSLPVTLGQPASISCRSSQSLVHSNGNTYLHWYQQRPGQSPRLLIYKVSNRFSGVPDRFSGSGSGTDFTLKISRVEAEDVGVYFCSQSTHIPWTFGQGTKVEIKR
notes: Hybrid antibody
Take B8: in the experiment with CD137-ECD-Fc, the concentration for a half-maximal effect (EC50) amounted to 0.634 nM. Also, the binding result with HER2-ECD-His is reported as “no binding”.

B9: 20-Hu-HC+601-LC-D28G (antibody, human IgG4 S228P, kappa, V domains shown)
VH: EVQLVESGGGLVQPGGSLRLSCAASGFVFSNYDMSWVRQAPGKRLEWVATISGGGGYTYYSDSVKGRFTISRDNAKNSLYLQMNSLRAEDTAVYYCASPYGHYGFEYWGQGTLVTVSS
VL: DIQMTQSPSSLSASVGDRVTITCSASQGISNYLNWYQQKPGKAPKVLIYFTSSLHSGVPSRFSGSGSGTDFTLTISSLQPEDFATYYCQQYSTVPWTFGQGTKVEIKR
In the case of B9, the EC50 with PD1-His was 0.485 nM.

B10: 20-Hu-HC+601-LC-F50Y (antibody, human IgG4 S228P, kappa, V domains shown)
VH: EVQLVESGGGLVQPGGSLRLSCAASGFVFSNYDMSWVRQAPGKRLEWVATISGGGGYTYYSDSVKGRFTISRDNAKNSLYLQMNSLRAEDTAVYYCASPYGHYGFEYWGQGTLVTVSS
VL: DIQMTQSPSSLSASVGDRVTITCSASQDISNYLNWYQQKPGKAPKVLIYYTSSLHSGVPSRFSGSGSGTDFTLTISSLQPEDFATYYCQQYSTVPWTFGQGTKVEIKR
On to B10, for which, in the experiment with PD1-His, it took 0.525 nM to reach a half-maximal effect (EC50).

B11: 20-Hu-HC+601-LC-Y32F (antibody, human IgG4 S228P, kappa, V domains shown)
VH: EVQLVESGGGLVQPGGSLRLSCAASGFVFSNYDMSWVRQAPGKRLEWVATISGGGGYTYYSDSVKGRFTISRDNAKNSLYLQMNSLRAEDTAVYYCASPYGHYGFEYWGQGTLVTVSS
VL: DIQMTQSPSSLSASVGDRVTITCSASQDISNFLNWYQQKPGKAPKVLIYFTSSLHSGVPSRFSGSGSGTDFTLTISSLQPEDFATYYCQQYSTVPWTFGQGTKVEIKR
In turn, B11 displayed an EC50 in the experiment with PD1-His of 0.456 nM.

B12: 20-Hu-HC+601-LC-T93N (antibody, human IgG4 S228P, kappa, V domains shown)
VH: EVQLVESGGGLVQPGGSLRLSCAASGFVFSNYDMSWVRQAPGKRLEWVATISGGGGYTYYSDSVKGRFTISRDNAKNSLYLQMNSLRAEDTAVYYCASPYGHYGFEYWGQGTLVTVSS
VL: DIQMTQSPSSLSASVGDRVTITCSASQDISNYLNWYQQKPGKAPKVLIYFTSSLHSGVPSRFSGSGSGTDFTLTISSLQPEDFATYYCQQYSNVPWTFGQGTKVEIKR
In the case of B12, it took 0.486 nM to reach a half-maximal effect with PD1-His (EC50).

B13: 20-Hu-HC+601-LC-V46L (antibody, human IgG4 S228P, kappa, V domains shown)
VH: EVQLVESGGGLVQPGGSLRLSCAASGFVFSNYDMSWVRQAPGKRLEWVATISGGGGYTYYSDSVKGRFTISRDNAKNSLYLQMNSLRAEDTAVYYCASPYGHYGFEYWGQGTLVTVSS
VL: DIQMTQSPSSLSASVGDRVTITCSASQDISNYLNWYQQKPGKAPKLLIYFTSSLHSGVPSRFSGSGSGTDFTLTISSLQPEDFATYYCQQYSTVPWTFGQGTKVEIKR
Take B13: the EC50 with PD1-His turned out to be 0.533 nM. This EC50 and that of the molecule before are within 1.5-fold of each other.

B14: 20-Hu-HC+601-LC-F71Y (antibody, human IgG4 S228P, kappa, V domains shown)
VH: EVQLVESGGGLVQPGGSLRLSCAASGFVFSNYDMSWVRQAPGKRLEWVATISGGGGYTYYSDSVKGRFTISRDNAKNSLYLQMNSLRAEDTAVYYCASPYGHYGFEYWGQGTLVTVSS
VL: DIQMTQSPSSLSASVGDRVTITCSASQDISNYLNWYQQKPGKAPKVLIYFTSSLHSGVPSRFSGSGSGTDYTLTISSLQPEDFATYYCQQYSTVPWTFGQGTKVEIKR
In the experiment with PD1-His, B14 came in with an EC50 of 1.03 nM.

B15: 20-Hu-HC+601-LC-N34S (antibody, human IgG4 S228P, kappa, V domains shown)
VH: EVQLVESGGGLVQPGGSLRLSCAASGFVFSNYDMSWVRQAPGKRLEWVATISGGGGYTYYSDSVKGRFTISRDNAKNSLYLQMNSLRAEDTAVYYCASPYGHYGFEYWGQGTLVTVSS
VL: DIQMTQSPSSLSASVGDRVTITCSASQDISNYLSWYQQKPGKAPKVLIYFTSSLHSGVPSRFSGSGSGTDFTLTISSLQPEDFATYYCQQYSTVPWTFGQGTKVEIKR
B15 showed an EC50 with PD1-His of 0.175 nM.

B16: mAb127 (antibody, human IgG4 S228P, kappa, V domains shown)
VH: QVQLVQSGAEVKKPGASVKVSCKASGYTFTSEWMNWVRQAPGQGLEWMGQIFPALGSTNYNEMYEGRVTMTTDTSTSTAYMELRSLRSDDTAVYYCARGIGNYALDAMDYWGQGTLVTVSS
VL: DIQMTQSPSSLSASVGDRVTITCRASESVDFYGNSFMHWYQQKPGKAPKLLIYLASNLESGVPSRFSGSGSGTDFTLTISSLQPEDFATYYCQQNIEDPLTFGGGTKVEIKR
notes: Anti-TGF-β, IgG4 (S228P), kappa; also called mAb127-HC+mAb127-LC
In the case of B16, the EC50 in experiment [1] stood at 0.0414 nM.

B17: 14-Hu-HC+1D11-Hu-LC (antibody, human IgG4 S228P, kappa, V domains shown)
VH: QVQLVQSGAEVKKPGASVKVSCKASGYSFTGYTMNWVRQAPGQGLEWIGLINPYNGDTSYNQKFKGRATVTVDKSTSTAYMELSSLRSEDTAVYYCARWRYTMDYWGQGTLVTVSS
VL: DIVLTQSPASLAVSPGQRATITCRASESVDSYGNSFMHWYQQKPGQPPKLLIYLASNLESGVPARFSGSGSGTDFTLTINPVEADDTANYYCQQNNEDPLTFGGGTKVELKR
notes: Hybrid antibody
With B17, the binding result (in experiment [1]; in the experiment with PD1-His) was “no binding” throughout.

B18: 1D11-Hu (antibody, human IgG4 S228P, kappa, V domains shown)
VH: QVQLVQSGAEVKKPGASVKVSCKASGYIFITYWMNWVRQAPGQGLEWIGQIFPASGSTNYNEMFEGRATLTVDTSTSTAYMELSSLRSEDTAVYYCARGDGNYALDAMDYWGQGTLVTVSS
VL: DIVLTQSPASLAVSPGQRATITCRASESVDSYGNSFMHWYQQKPGQPPKLLIYLASNLESGVPARFSGSGSGTDFTLTINPVEADDTANYYCQQNNEDPLTFGGGTKVELKR
notes: Humanized anti-TGF-β, IgG4 (S228P), kappa; also called 1D11-Hu-HC+1D11-Hu-LC
For B18, the EC50 in experiment [1] was 0.0662 nM and 0.134 nM. Also, the binding result in the experiment with PD1-His is “no binding”.

B19: 1D11-Hu-HC+14-Hu-LC (antibody, human IgG4 S228P, kappa, V domains shown)
VH: QVQLVQSGAEVKKPGASVKVSCKASGYIFITYWMNWVRQAPGQGLEWIGQIFPASGSTNYNEMFEGRATLTVDTSTSTAYMELSSLRSEDTAVYYCARGDGNYALDAMDYWGQGTLVTVSS
VL: DIVLTQSPASLAVSPGQRATITCRASESVDNYGNSFMNWYQQKPGQPPKPLIYFASNLESGVPARFSGSGSRTDFTLTINPVEADDTANYYCQQNNEAPPTFGQGTKVEIKR
notes: Hybrid antibody
Turning to B19, the EC50 in experiment [1] was 0.525 nM and 1.27 nM. For the same molecule, the binding result in the experiment with PD1-His is “no binding”.
